Measurements published in patent publication US20030082175A1 (Biogen, published 2003).

B1: hTRAIN-Fc (Fc fusion, human, UniProt Q9NS68 30-170, looked up)
chain: ESGDCRQQEFRDRSGNCVPCNQCGPGMELSKECGFGYGEDAQCVTCRLHRFKEDWGFQKCKPCLDCAVVNRFQKANCSATSDAICGDCLPGFYRKTKLVGFQDMECVPCGDPPPPYEPHCASKVNLVKIASTASSPRDTAL
notes: not shown: Fc part
B2: FLAG-human APRIL (ligand)
chain: DYKDDDDKGPGQVQLQKQKKQHSVLHLVPINATSKDDSDVTEVMWQPALRRGRGLQAQGYGVRIQDAGVYLLYSQVLFQDVTFTMGQVVSREGQGRQETLFRCIRSMPSHPDRAYNSCYSAGVFHLHQGDILSVIIPRARAKLNLSPHGTFLGFVKL
notes: Made from plasmid ps429 (p1448) in 293T cells; also called FLAG-hAPRIL; FLAG-h APRIL

What was measured:
[1] = biological target: B2; assay: immunoprecipitation from conditioned media with ProtG-Sepharose, anti-FLAG M2 blot
Procedure: (§1) Immunoprecipitation experiments: 293T cells were transfected with indicated expression plasmid (Rec-Fc or flag ligand) in 9 cm plate. Transfected cells were left for 5d in 8 ml Optimem media (Gibco-BRL). Immunoprecipitation were performed by mixing 200 ul of each receptor-conditioned media with 200 ul of each ligand-conditioned media+400 ul PBS+10 ul ProtG-Sepharose. These were rotated 1 h on a wheel, washed 4× with 1 ml PBS, then boiled in 50 ul sample buffer (+DTT). 20 ul of each immunoprecipitation was loaded per lane. Reveal blotting was done with 1 ug/ml anti-FLAG M2 mAb (Sigma, St Louis Mo.) and anti-mouse PO (1/2000). A reprobe blot with anti-human-PO was also checked: 100 ul conditioned media was precipitated with MeOH/CHC13/lysozyme. This mix was boiled in 50 ul sample buffer (+DTT) and 20 ul was loaded. A Reveal blot was performed with anti-FLAG mAb M2 (1 ug/ml) and anti-mouse-PO (1/2000).

[2] = biological target: T1, FLAG-hBAFF (human, UniProt Q9Y275 136-285, limits assumed); assay: as above
T1 construct: also called hKayL-440 (hBAFF); hKayL-440; not shown: FLAG tag
T1 sequence (Q9Y275 136-285 limits assumed): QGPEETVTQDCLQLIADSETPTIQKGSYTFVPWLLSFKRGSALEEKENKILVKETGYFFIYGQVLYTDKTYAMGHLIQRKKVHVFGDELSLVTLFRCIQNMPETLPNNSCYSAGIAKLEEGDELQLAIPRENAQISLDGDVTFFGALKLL
Procedure: as §1

[3] = biological target: T2, hCD40-Fc (human, UniProt P25942 21-193, limits assumed); assay: ELISA, receptor-Fc coated, FLAG-tagged ligand detected with anti-FLAG M2
T2 construct: not shown: Fc part
T2 sequence (P25942 21-193 limits assumed): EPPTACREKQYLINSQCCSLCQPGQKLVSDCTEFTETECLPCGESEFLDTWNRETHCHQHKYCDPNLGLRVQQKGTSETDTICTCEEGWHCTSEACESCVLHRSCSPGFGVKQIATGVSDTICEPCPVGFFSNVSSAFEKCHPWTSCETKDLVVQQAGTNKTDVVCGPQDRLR

Binder	binding result [1]	binding result [2]	binding result [3]
B1	no binding	no binding	
B2			no binding
